Test results taken from US20220372154A1 (APEXIGEN, published 2022).

T1: cynomolgus TNFR2-His tagged protein (cynomolgus, UniProt A0A2K5VET2 132-366)
T1 construct: also called Cyno TNFR2; cynomolgus TNFR2 protein; not shown: His tag
T1 sequence: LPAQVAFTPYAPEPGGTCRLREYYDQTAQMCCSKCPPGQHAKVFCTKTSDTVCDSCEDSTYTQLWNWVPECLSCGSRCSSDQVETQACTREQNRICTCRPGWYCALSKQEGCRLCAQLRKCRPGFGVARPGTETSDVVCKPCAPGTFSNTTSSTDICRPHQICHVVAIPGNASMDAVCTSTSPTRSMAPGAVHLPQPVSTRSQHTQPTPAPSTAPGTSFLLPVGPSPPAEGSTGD

T2: soluble mouse TNFR2 (mouse, UniProt P25119 23-258, limits assumed)
T2 sequence (looked up): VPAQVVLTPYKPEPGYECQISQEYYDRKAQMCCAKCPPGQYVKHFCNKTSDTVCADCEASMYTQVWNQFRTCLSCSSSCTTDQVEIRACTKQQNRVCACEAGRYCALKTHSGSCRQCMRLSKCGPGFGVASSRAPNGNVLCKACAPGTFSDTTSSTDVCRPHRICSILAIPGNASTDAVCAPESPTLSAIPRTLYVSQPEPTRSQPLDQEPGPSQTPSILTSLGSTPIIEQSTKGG

T3: TNFR2 CRD4 peptide (peptide 5; aa 146-174 of mature TNFR2) (human)
T3 construct: Range counted on mature TNFR2; also called peptide five; bin 5
T3 peptide: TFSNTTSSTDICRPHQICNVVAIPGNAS

T4: human TNFR2-His tagged protein (soluble) (human, UniProt P20333 23-257)
T4 construct: also called hTNFR2 (soluble); soluble TNFR2-His; not shown: His tag
T4 sequence (looked up): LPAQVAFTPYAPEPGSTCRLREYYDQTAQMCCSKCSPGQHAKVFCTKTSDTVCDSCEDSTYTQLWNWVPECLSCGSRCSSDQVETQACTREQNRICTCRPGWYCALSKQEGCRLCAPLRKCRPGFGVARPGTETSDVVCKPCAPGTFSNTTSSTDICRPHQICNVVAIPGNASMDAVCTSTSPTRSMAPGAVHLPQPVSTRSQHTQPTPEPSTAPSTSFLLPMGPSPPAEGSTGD

T5: human TNFR2 expressed on cells (human, UniProt P20333 23-461)
T5 construct: whole, on cells; also called hTNFR2 (cell); CHO-TNFR2
T5 sequence (looked up): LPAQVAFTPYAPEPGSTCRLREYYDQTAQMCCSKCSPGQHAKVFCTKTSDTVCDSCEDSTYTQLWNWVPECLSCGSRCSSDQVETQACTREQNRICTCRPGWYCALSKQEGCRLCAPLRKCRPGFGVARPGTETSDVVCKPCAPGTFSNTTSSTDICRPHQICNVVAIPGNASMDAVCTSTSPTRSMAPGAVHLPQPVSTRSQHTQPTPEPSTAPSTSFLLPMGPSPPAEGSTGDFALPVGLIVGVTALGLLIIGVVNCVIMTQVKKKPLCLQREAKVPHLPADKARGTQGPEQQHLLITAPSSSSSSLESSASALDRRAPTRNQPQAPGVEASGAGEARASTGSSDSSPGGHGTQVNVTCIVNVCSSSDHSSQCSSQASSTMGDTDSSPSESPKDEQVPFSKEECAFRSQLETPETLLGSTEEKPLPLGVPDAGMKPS

T6: TNFR-Fc (UniProt P20333 23-257, limits assumed)
T6 construct: Printed only as TNFR-Fc; not shown: Fc part
T6 sequence (looked up): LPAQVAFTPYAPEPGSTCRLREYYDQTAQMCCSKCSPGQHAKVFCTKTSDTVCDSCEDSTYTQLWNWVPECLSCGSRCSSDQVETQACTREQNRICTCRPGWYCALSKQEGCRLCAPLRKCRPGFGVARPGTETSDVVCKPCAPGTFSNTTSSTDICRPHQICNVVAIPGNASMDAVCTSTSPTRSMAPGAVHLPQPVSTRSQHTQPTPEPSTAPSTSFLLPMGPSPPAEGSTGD


Tests used:
[1] = biological target: T1, cynomolgus TNFR2-His tagged protein; assay: ELISA on coated cynomolgus TNFR2-His
Experimental: (§1) In FIGS. 3A-3B, human (3A) or cynomolgus (3B) TNFR2-His tagged protein was coated on 96-well ELISA plates at 1 μg/mL and incubated overnight at 4° C. Plates were washed and blocked using 1% BSA. Antibodies were added for 1 hour at room temperature (RT), washed, and detected using anti-Human HRP. Assay was developed using TMB substrate for 3-5 minutes. In FIG. 3C, FACS binding was performed on CHO cells that were engineered to express human TNFR2. Briefly, antibodies were incubated with 200,000 cells in MACS buffer for 1 hour followed by wash and detection using anti-human IgG BV421 for 20 minutes. Samples were analyzed using Cytoflex or MACSQuant flow cytometers. In FIG. 3D, ligand blocking ELISA was performed by coating plates with 1 ug/mL TNFR-Fc overnight at 4° C. Plates were washed, blocked and antibodies were incubated for 1 hr at RT. […] Assay was developed using TMB substrate for 5-7 minutes.

soluble mouse TNFR2 = biological target: T2, soluble mouse TNFR2; assay: binding screen on soluble mouse TNFR2 (mouse cross-reactivity)
[2] = biological target: T3, TNFR2 CRD4 peptide (peptide 5; aa …); assay: peptide-binding ELISA (potential peptide bin)
[3] = biological target: T4, human TNFR2-His tagged protein (soluble); assay: ELISA on coated human TNFR2-His
Experimental: as §1

[4] = biological target: T4, human TNFR2-His tagged protein (soluble); assay: ELISA, soluble human TNFR2
[5] = biological target: T5, human TNFR2 expressed on cells; assay: blocking of biotinylated TNF-α on TNFR2-CHO cells, flow cytometry
Experimental: TNFR2-overexpressing CHO cells were plated at 100,000 cells per well. Cells were incubated with the indicated antibodies for 30 minutes on ice. […] Cells were analyzed using Cytoflex or MACSQuant flow cytometer. Assay was repeated twice.

[6] = biological target: T1, cynomolgus TNFR2-His tagged protein; assay: ELISA, cynomolgus TNFR2
[7] = biological target: T5, human TNFR2 expressed on cells; assay: flow cytometry, cell-expressed human TNFR2
[8] = biological target: T5, human TNFR2 expressed on cells; assay: cell binding on TNFR2-overexpressing (OE) cells
TNFR-Fc [9] = biological target: T6, TNFR-Fc; assay: TNF-α blocking ELISA (soluble)
[10] = biological target: T5, human TNFR2 expressed on cells; assay: flow cytometry on CHO cells expressing human TNFR2
Experimental: as §1

TNFR-Fc [11] = biological target: T6, TNFR-Fc; assay: TNF-α blocking ELISA on coated TNFR-Fc
Experimental: as §1

Binder | EC50 [1] [nM] | binding result (soluble mouse TNFR2) | binding result [2] | EC50 [3] [nM] | EC50 [4] [nM] | IC50 [5] [nM] | EC50 [6] [nM] | EC50 [7] [nM] | Kd [8] [nM] | IC50 (TNFR-Fc [9]) [nM] | EC50 [10] [nM] | IC50 (TNFR-Fc [11]) [nM]
chimeric antibody clone 24-62 (rab600_24_62) (antibody, V domains shown) VH: QSLEESGGDLVVPGTSLTLTCTASGFDLSSFYYMCWVRQAPGKGLEWIACIYAVSSGSTYYASWAKGRFTVSRTSSTTATLQMTSLTAADTATYFCARHQSYETYGYVGVVYATYFSLWGPGTLVTVSS VL: ALVMTQTPASVSAAVGGTVTINCQASEDIDSYLAWYQQKPGQPPKLLIYYASYLTSGVPSRFKGSGSGTEYTLTISGVQCDDAATYYCQSAFYSNNTETAFGGGTEVVVK | 0.0958 | binds | binds | 0.137 | – | – | – | – | – | – | – | –
humanized antibody h600_HB_28B7.3 (antibody, V domains shown, also called h600_23_28B7) VH: EVQLVESGGGLVQPGGSLRLSCAASGFSLNSHYMIWVRQAPGKGLEWVGIITSSDYIYYARWAKGRFTISRDNSKNTLYLQMNSLRAEDTAVYYCARYNYDDDGELFNLWGQGTLVTVSS VL: DIQMTQSPSSLSASVGDRVTITCQSSQSIDANNDLAWYQQKPGKAPKLLIYLASKLASGVPSRFSGSGSGTDFTLTISSLQPEDFATYYCLGGYDDDADNTFGGGTKVEIK | – | – | – | – | 0.24 | 0.379 | 0.211 | 0.28 | 0.13 | 2.46 | – | –
chimeric antibody clone 24-124 (rab600_24_124) (antibody, V domains shown) VH: QEQLVESGGGLVTLGGSLKLSCKASGIDFSSYGISWVRQAPGKGLEWIAYIYPDYGSTDYATWVNGRFTISLDNAQNTVFLQMTSLTAADTATYFCASGYASSSGYYDPKYFGLWGPGTLVTVSS VL: IKMTQTPASVSAAVGGTVTINCRASEDIESYLAWYQQKPGQPPKLLIYDASDLASGVPSRVKGSGSGTEFTLTISGVRCDDAATYYCQHGFYTSRSDSVFGGGTEVVVK | 0.0882 | no binding | binds | 0.137 | – | – | – | – | – | – | 0.179 | 2.54
humanized antibody clone 4 (taken as h600_23_4) (antibody, V domains shown) VH: EVQLVESGGGLVQPGGSLRLSCAASGIDLSSYTMGWVRQAPGKGLEWVGFISSSGHTYYANWAKGRFTISRDNSKNTLYLQMNSLRAEDTAVYYCAREGGYGGYDYTGIFNLWGQGTLVTVSS VL: DIQMTQSPSTLSASVGDRVTITCQATESISSWLAWYQQKPGKAPKLLIYGASTLESGVPSRFSGSGSGTEFTLTISSLQPDDFATYYCQQGYIYTNVDNTFGGGTKVEIK | – | – | – | – | 0.111 | – | 0.34 | 1.13 | – | 3.57 | – | –
chimeric antibody clone 24-25 (rab600_24_25) (antibody, V domains shown) VH: QSLEESGGGLVKPEGSLTLTCAVSGFDLNSYYWICWARQAPGKGLEWIACIDGGSTGSAYYASWAKGRLSISKASSTTVTLQMTSLTAADTATYFCARVQSYVGYANYGYPNYFNLWGPGTLVTVSS VL: IEMTQTPSSVSAAVGGTVTINCQSSEDIDSYLAWYQQKPGQPPKLLIYHASYLTSGVPSRFSGSRSGTEFTLTISDLECDDAATYYCQSAYYSSSADNTFGGGTEVVVK | 0.189 | binds | binds | 0.21 | – | – | – | – | – | – | – | –
chimeric antibody clone 24-97 (rab600_24_97) (antibody, V domains shown) VH: QSLEESGGDLVKPGASLTLTCKASGFSFSSGHDMCWVRQAPGKGLEWIACIYPDYDITDYASWVNGRFTISLDNAQNTVFLQMTSLTAADTATYFCARSGYGGFRYGFNLWGPGTLVTVSS VL: DIVMTQTPASVEVAVGGTVTIKCQASEDIENYLAWYQQKPGQPPKLLIYDASDLTSGVPSRFKGSGSGTQFTLTISDLECADAATYYCQSVYYTSSDNYNNAFGGGTEVVVK | 0.086 | binds | binds | 0.0632 | – | – | – | – | – | – | – | –

Next, values leading:

EC50 [1] [nM] | binding result (soluble mouse TNFR2) | binding result [2] | EC50 [3] [nM] | EC50 [4] [nM] | IC50 [5] [nM] | EC50 [6] [nM] | EC50 [7] [nM] | Kd [8] [nM] | IC50 (TNFR-Fc [9]) [nM] | EC50 [10] [nM] | IC50 (TNFR-Fc [11]) [nM] | Binder
0.0235 | binds | binds | 0.0862 | – | – | – | – | – | – | 0.513 | – | chimeric antibody clone 25-10 (rab600_25_10) (antibody, V domains shown) VH: QSVEESGGRLVAPGTPLTLTCTVSGIDLSRYAMAWVRQAPGKGLEYIGYIDTGDSTYYATWAKGRFTISRTSTTVHLKIASPTTEDTATYFCTNVGVRMYLWGPGTLVTVSS VL: DVVMTQTPASVEAAVGGTVTIKCQASQSISSYLSWYQQKPGQPPKLLIYRASTLESGVPSRFKGSGSGTEFTLTISDLECADAATYYCQCGYYGGSYIGAFGGGTEVVVK
0.000348 | binds | binds | 0.0443 | – | – | – | – | – | – | 0.946 | – | chimeric antibody clone 25-103 (rab600_25_103) (antibody, V domains shown) VH: QEQLKESGGGLVTPGTPLTLTCTVSGIDLSSYAMGWVRQAPGKGLEYIGFIDTGGSTYYANWAKGRFTISRTSTTVDLKIASPTTEDAATYFCANVGARMYLWGPGTLVTVSS VL: DVVMTQTPASVEAAVGGTVTINCQASQSISNLLAWYQQKPGQPPKLLIYRASTLESGVPSRFKGSGSGTEFTLTISDLECADAATYYCQCSYYGGSYIGAFGGGTEVVVK
0.0742 | no binding | binds | 0.0981 | – | – | – | – | – | – | – | – | chimeric antibody clone 24-2 (rab600_24_2) (antibody, V domains shown) VH: QEQLEESGGGLVQPEGSLALTCKASGFSFSVSYWICWVRQAPGKGLEWIACTDGGDGSSYYASWVNGRFTISKISSTTVTLQMTSLTAADTAIYFCARDRSDVFNLWGPGTLVTVSS VL: DIVMTQTPASVEAAVGGTVTIKCQAGQSIDSNLAWYQQKPGQPPKLLIYRASTLASGVPSRFKGSGSGTEFALTISDLECADAATYFCQSFYVTISAMVDYPFGGGTEVVVK
0.038 | no binding | binds | 0.0704 | – | – | – | – | – | – | 3.15 | 4.13 | chimeric antibody clone 25-31 (rab600_25_31) (antibody, V domains shown) VH: QEQLKESGGGLVTPGTPLTLTCTASGFSLSSYDMSWVRQAPGKGLEWIGYIWSSGSAYYATWAEGRFTISKTSTTVGLKITSPTTEDTATYFCARRYVGSSYDTWGQGTLVTVSS VL: AVLTQTPSPVSAAVGGTVTISCQSSQSVSNNNYLSWYQQKPGQPPKLLIYAASYLASGVPPRFSGSGSGTQFTLTISGVQCDDAATYYCLGDYDNDIDHAFGGGTEVVVK
